± gives the uncertainty stated by the source.

B1: Zinc finger homeobox protein 3, residues 2244 to 2299; numbered along this chain, Q15911 (parent)
chain: SSRTRFTDYQLRVLQDFFDANAYPKDDEFEQLSNLLNLPTRVIVVWFQNARQKARK

Variants of B1 are the subject of this data set. The data set is described as follows: abundance fitness (aPCA) (normalised: wild type 0, dead -1); higher = more abundant; growth selection in yeast, the domain comes from the species named. As to conditions: Homo sapiens.
Take SSRTRFTDYQLRVLQDFFDANAYPKDDEFEQLSNLGNLPTRVIVVWFQNARQKARK [L36G]: the abundance fitness is -0.929 ± 0.12.

Take SSRTRFTDYQLRVLQDFFDANAYPKDDEFEQLSNLDNLPTRVIVVWFQNARQKARK [L36D]: the abundance fitness was -0.908 ± 0.28.

For SSRTRFTDYQLRVLQDFFDANAYPKDDEFEQLSNLANLPTRVIVVWFQNARQKARK [L36A], the abundance fitness is -0.238 ± 0.13.

In the case of SSRTRFTDYQLRVLQDFFDANAYPKDDEFEQLSNLFNLPTRVIVVWFQNARQKARK [L36F], the abundance fitness was -0.659 ± 0.19.

Regarding SSRTRFTDYQLRVLQDFFDANAYPKDDEFEQLSNLSNLPTRVIVVWFQNARQKARK [L36S], the abundance fitness was -0.272 ± 0.11.

In the case of SSRTRFTDYQLRVLQDFFDANAYPKDDEFEQLSNLCNLPTRVIVVWFQNARQKARK [L36C], the abundance fitness was -0.313 ± 0.12.

SSRTRFTDYQLRVLQDFFDANAYPKDDEFEQLSNLQNLPTRVIVVWFQNARQKARK [L36Q]: the abundance fitness was -0.988 ± 0.29.

As for SSRTRFTDYQLRVLQDFFDANAYPKDDEFEQLSNLENLPTRVIVVWFQNARQKARK [L36E], the abundance fitness was -0.892 ± 0.18.

As to SSRTRFTDYQLRVLQDFFDANAYPKDDEFEQLSNLMNLPTRVIVVWFQNARQKARK [L36M], the abundance fitness was -0.375 ± 0.24.

In the case of SSRTRFTDYQLRVLQDFFDANAYPKDDEFEQLSNLRNLPTRVIVVWFQNARQKARK [L36R], the abundance fitness is -0.748 ± 0.11.

As for SSRTRFTDYQLRVLQDFFDANAYPKDDEFEQLSNLTNLPTRVIVVWFQNARQKARK [L36T], the abundance fitness came to 0.013 ± 0.13.

SSRTRFTDYQLRVLQDFFDANAYPKDDEFEQLSNLYNLPTRVIVVWFQNARQKARK [L36Y]: the abundance fitness was -0.86 ± 0.35.

For SSRTRFTDYQLRVLQDFFDANAYPKDDEFEQLSNLPNLPTRVIVVWFQNARQKARK [L36P], the abundance fitness was -1.06 ± 0.25.

SSRTRFTDYQLRVLQDFFDANAYPKDDEFEQLSNLVNLPTRVIVVWFQNARQKARK [L36V]: the abundance fitness amounted to 0.024 ± 0.098.

On to SSRTRFTDYQLRVLQDFFDANAYPKDDEFEQLSNLHNLPTRVIVVWFQNARQKARK [L36H], for which the abundance fitness was -1.06 ± 0.46.

Consider SSRTRFTDYQLRVLQDFFDANAYPKDDEFEQLSNLWNLPTRVIVVWFQNARQKARK [L36W], for which the abundance fitness was -0.811 ± 0.15.

As to SSRTRFTDYQLRVLQDFFDANAYPKDDEFEQLSNLKNLPTRVIVVWFQNARQKARK [L36K], the abundance fitness is -0.95 ± 0.34.

As to SSRTRFTDYQLRVLQDFFDANAYPKDDEFEQLSNLINLPTRVIVVWFQNARQKARK [L36I], the abundance fitness is -0.459 ± 0.32.

Take SSRTRFTDYQLRVLQDFFDANAYPKDDEFEQLSPLLNLPTRVIVVWFQNARQKARK [N34P]: the abundance fitness was -0.137 ± 0.2.

On to SSRTRFTDYQLRVLQDFFDANAYPKDDEFEQLSMLLNLPTRVIVVWFQNARQKARK [N34M], for which the abundance fitness was -0.024 ± 0.4.

Take SSRTRFTDYQLRVLQDFFDANAYPKDDEFEQLSYLLNLPTRVIVVWFQNARQKARK [N34Y]: the abundance fitness was -0.161 ± 0.41.

SSRTRFTDYQLRVLQDFFDANAYPKDDEFEQLSSLLNLPTRVIVVWFQNARQKARK [N34S]: the abundance fitness was determined as 0.066 ± 0.16.

Take SSRTRFTDYQLRVLQDFFDANAYPKDDEFEQLSRLLNLPTRVIVVWFQNARQKARK [N34R]: the abundance fitness was -0.113 ± 0.19.

Turning to SSRTRFTDYQLRVLQDFFDANAYPKDDEFEQLSQLLNLPTRVIVVWFQNARQKARK [N34Q], the abundance fitness was -0.208 ± 0.26.

Regarding SSRTRFTDYQLRVLQDFFDANAYPKDDEFEQLSWLLNLPTRVIVVWFQNARQKARK [N34W], the abundance fitness is -0.61 ± 0.33.

As for SSRTRFTDYQLRVLQDFFDANAYPKDDEFEQLSVLLNLPTRVIVVWFQNARQKARK [N34V], the abundance fitness amounted to 0.001 ± 0.14.

Regarding SSRTRFTDYQLRVLQDFFDANAYPKDDEFEQLSTLLNLPTRVIVVWFQNARQKARK [N34T], the abundance fitness was -0.145 ± 0.2.

SSRTRFTDYQLRVLQDFFDANAYPKDDEFEQLSNGLNLPTRVIVVWFQNARQKARK [L35G]: the abundance fitness is -0.06 ± 0.079.

On to SSRTRFTDYQLRVLQDFFDANAYPKDDEFEQLSNDLNLPTRVIVVWFQNARQKARK [L35D], for which the abundance fitness came out at 0.115 ± 0.16.

Turning to SSRTRFTDYQLRVLQDFFDANAYPKDDEFEQLSNTLNLPTRVIVVWFQNARQKARK [L35T], the abundance fitness is 0.117 ± 0.13.

Regarding SSRTRFTDYQLRVLQDFFDANAYPKDDEFEQLSNFLNLPTRVIVVWFQNARQKARK [L35F], the abundance fitness was -0.382 ± 0.25.

Take SSRTRFTDYQLRVLQDFFDANAYPKDDEFEQLSNSLNLPTRVIVVWFQNARQKARK [L35S]: the abundance fitness was determined as 0.007 ± 0.096.

Take SSRTRFTDYQLRVLQDFFDANAYPKDDEFEQLSNILNLPTRVIVVWFQNARQKARK [L35I]: the abundance fitness was 0.067 ± 0.17.

For the variant SSRTRFTDYQLRVLQDFFDANAYPKDDEFEQLSNMLNLPTRVIVVWFQNARQKARK [L35M], the abundance fitness was 0.085 ± 0.13.

As for SSRTRFTDYQLRVLQDFFDANAYPKDDEFEQLSNCLNLPTRVIVVWFQNARQKARK [L35C], the abundance fitness was -0.176 ± 0.13.

On to SSRTRFTDYQLRVLQDFFDANAYPKDDEFEQLSNYLNLPTRVIVVWFQNARQKARK [L35Y], for which the abundance fitness was -0.129 ± 0.16.

Take SSRTRFTDYQLRVLQDFFDANAYPKDDEFEQLSNNLNLPTRVIVVWFQNARQKARK [L35N]: the abundance fitness was -0.004 ± 0.19.

Turning to SSRTRFTDYQLRVLQDFFDANAYPKDDEFEQLSNALNLPTRVIVVWFQNARQKARK [L35A], the abundance fitness was -0.078 ± 0.089.

With SSRTRFTDYQLRVLQDFFDANAYPKDDEFEQLSNELNLPTRVIVVWFQNARQKARK [L35E], the abundance fitness was -0.107 ± 0.13.

With SSRTRFTDYQLRVLQDFFDANAYPKDDEFEQLSNVLNLPTRVIVVWFQNARQKARK [L35V], the abundance fitness was found to be 0.041 ± 0.083.

For SSRTRFTDYQLRVLQDFFDANAYPKDDEFEQLSNKLNLPTRVIVVWFQNARQKARK [L35K], the abundance fitness was found to be 0.201 ± 0.14.

As for SSRTRFTDYQLRVLQDFFDANAYPKDDEFEQLSNPLNLPTRVIVVWFQNARQKARK [L35P], the abundance fitness was -0.918 ± 0.2.

For the variant SSRTRFTDYQLRVLQDFFDANAYPKDDEFEQLSNHLNLPTRVIVVWFQNARQKARK [L35H], the abundance fitness was -0.088 ± 0.14.

As for SSRTRFTDYQLRVLQDFFDANAYPKDDEFEQLSNRLNLPTRVIVVWFQNARQKARK [L35R], the abundance fitness stood at 0.085 ± 0.083.

As for SSRTRFTDYQLRVLQDFFDANAYPKDDEFEQLSNLLNPPTRVIVVWFQNARQKARK [L38P], the abundance fitness is -1.03 ± 0.19.

Take SSRTRFTDYQLRVLQDFFDANAYPKDDEFEQLSNLLNHPTRVIVVWFQNARQKARK [L38H]: the abundance fitness was -0.967 ± 0.3.

Turning to SSRTRFTDYQLRVLQDFFDANAYPKDDEFEQLSNLLNNPTRVIVVWFQNARQKARK [L38N], the abundance fitness is -0.76 ± 0.47.

The record behind these values is the Human Domainome abundance scans (Beltran et al. 2025).
